Reference: the supplement of paper PMC9170038

Tested on: MS2 coat protein
Assay: apparent KD of MS2 coat protein; designed switch direction (-1 OFF switch, 1 ON switch): -1; higher = weaker reporter binding
Outline: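 Apparent KD, taken as the median over clusters for each design, was obtained by curve-fitting normalised cluster fluorescence. Designed RNA switches had been transcribed on Illumina chips by stalled E. coli RNA polymerase and titrated with SNAP-549-labelled MS2 coat protein, doubling from 0.7 or 1.5 nM to 3 µM.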

[1] = input ligand: microRNA oligo, concentration not stated
[2] = Eterna round: R95, input ligand: microRNA oligo, concentration not stated
[3] = Eterna round: R95, input ligand: FMN 200 uM
[4] = Eterna round: R95, input ligand: none

Sequence | apparent KD of MS2 coat protein [1] | apparent KD of MS2 coat protein (input ligand: FMN 200 uM) | apparent KD of MS2 coat protein (input ligand: none) | apparent KD of MS2 coat protein [2] | other results
UUAGAUUAUUGAGGAUAUGGAUAUUUUUAUUAACCAGAAGGCAAACUCAACAUGAGGAUCACCCAUGUAUAAAGGGUAUUAGUU [JR_ExcNG1_Sub098] (Eterna round: R96, puzzle: Exclusion NG 1) | 71.2 nM | – | – | – | –
UUAGCGUAUGUAAGGAUAUGCUGGUCUAAUGAUCAGCAGAAGGUACAUGAGGAUCACCCAUGUGUAUUCGUUAU [Mod of JL 7 - Jieux - Brourd's mod of Exclusion 4] (Eterna round: R97, puzzle: Brourd's mod of Exclusion 4) | – | 75.9 nM | 18.4 nM | – | –
UUAGGCUGAAGAUCAAUUAAUUAACAUGAGGAUCACCCAUGUAAGGAUAUCAGCUCGAUUAGAGCUGAGAAGGUACAUGCAGCC [ExNG3/18-A1] (Eterna round: R96, puzzle: Exclusion NG 3) | 102 nM | – | – | – | –
UUAUAAAGUGUGAGGAUAUGCUGGUCCAUAGAUCAGCAGAAGGCACAUGAGGAUCACCCAUGUAAUAUAUUUUU [Mat - Exclusion 4 - JL Mod - D43] (puzzle: Brourd's mod of Exclusion 4) | – | – | – | 27.2 nM | –
UUAUAACAUGAGGAUCACCCAUGUUAGGAUAUCGCAGUAAGCUUCAGUAAUGAGCAUUCGAGAAGGAACGGGUA [Eternabot (L2) Solution 63] (Eterna round: R97, puzzle: Exclusion 1) | – | 22 nM | 22 nM | – | –
UUAUACGCUGAGGAUAUCUUCACUAAAGUGUGAAGAGAAGGCGGUACAUGAGGAUCACCCAUGUCUAUGGGCAG [Ex-6 Malc#18] (puzzle: Exclusion 6) | – | – | – | 568 nM | apparent KD of MS2 coat protein [3]: 596 nM; apparent KD of MS2 coat protein [4]: 282 nM
UUAUACGUUGAGGAUAUGCGAAUAAGUAUAGUUGCAGAAGGCGAUACAUGAGGAUCACCCAUGUUCAUGGACAU [LRO-Ex6-04] (puzzle: Exclusion 6) | – | – | – | 106 nM | –
UUAUACGUUGAGGAUAUGCGAAUUAGUAUAGUUGCAGAAGGCGAUACAUGAGGAUCACCCAUGUUUAUGGGCAU [LRO-Ex6-06] (puzzle: Exclusion 6) | – | – | – | 152 nM | –
UUAUAGUAUGUAGGAUAUCGGUCAGUUUCUGAUCGAGAAGGACAUGAGGAUCACCCAUGUAAGGCUACCGGUUUCUGGUGGCCU [JL ENG1 3.52] (Eterna round: R96, puzzle: Exclusion NG 1) | 18.5 nM | 94.4 nM | 20.9 nM | – | –
UUAUAUAGAGUGAGGAUAUGCUGGUCCUUGGAUCAGCAGAAGGCACAUGAGGAUCACCCAUGUAAAAUAAUAUU [Mat - Exclusion 4 - JL Mod - D39] (puzzle: Brourd's mod of Exclusion 4) | – | – | – | 21.1 nM | –
UUAUUAAAUGUAGGAUAUGCAUAUUAUUAUUAUGCAGAAGGACAUGAGGAUCACCCAUGUAUAUUAUUAUUAUAUAUUAUAUAU [Title] (Eterna round: R96, puzzle: Exclusion NG 1) | 26.5 nM | – | – | – | –
UUAUUAAGUGUGAGGAUAUGCUGGUCCUUGGAUCAGCAGAAGGCACAUGAGGAUCACCCAUGUACAAUAUAUUA [Mat - Exclusion 4 - JL Mod - D30] (Eterna round: R96, puzzle: Brourd's mod of Exclusion 4) | 30.5 nM | 235 nM | 42.1 nM | – | –
UUAUUAAGUGUGAGGAUAUGCUGGUCCUUGGAUCAGCAGAAGGCACAUGAGGAUCACCCAUGUACAAUAUAUUA [Mat - Exclusion 4 - JL Mod - D30] (puzzle: Brourd's mod of Exclusion 4) | – | – | – | 38.7 nM | –
UUAUUAGCAGGAUAUAUCCGGGAUCACAUGAGGAUCACCCAUGUGACCGCUUGAGAUUCUAUAGAAGGGCUUUAUU [Mod of ViennaUCT 32 - Jieux - Exclusion 5] (Eterna round: R97, puzzle: Exclusion 5) | – | 19.6 nM | 18.6 nM | – | –
UUAUUAUAUGUAGGAUAUGCAUAUUAUUAUUAUGCAGAAGGACAUGAGGAUCACCCAUGUAUAUUAUUAUUAUAUAUUGUAUAU [Title] (Eterna round: R96, puzzle: Exclusion NG 1) | 23.2 nM | – | – | – | –
UUAUUAUAUGUAGGAUAUGCAUAUUAUUAUUAUGCAGAAGGACAUGAGGAUCACCCAUGUAUAUUAUUAUUGUAUAUUAUAUAU [Title] (Eterna round: R96, puzzle: Exclusion NG 1) | 25.7 nM | – | – | – | –
UUAUUAUAUGUAGGAUAUGCGUAUUAUUAUUAUGCAGAAGGACAUGAGGAUCACCCAUGUAUAUUAUUAUUAUAUAUUAUAUAU [Title] (Eterna round: R96, puzzle: Exclusion NG 1) | 23.5 nM | – | – | – | –
UUAUUAUAUGUAGGAUAUGCGUAUUAUUGUUAUGCAGAAGGACAUGAGGAUCACCCAUGUAUAUUAUUGUUAUAUAUUAUAUGU [Title] (Eterna round: R96, puzzle: Exclusion NG 1) | 26.6 nM | 110 nM | 30.3 nM | – | –

Sequence | apparent KD of MS2 coat protein [1] | apparent KD of MS2 coat protein (input ligand: FMN 200 uM) | apparent KD of MS2 coat protein (input ligand: none) | apparent KD of MS2 coat protein [2] | other results
UUAUUGUGAGGAUAUCAGGUGUGCUAGCGUACUGGUACAUCUGAGAAGGCACAUGAGGAUCACCCAUGUUUCUU [JL-ex4-3.22 Brourd mod] (Eterna round: R96, puzzle: Exclusion 4) | 18.9 nM | 69.6 nM | 25 nM | – | –
UUAUUGUGAGGAUAUCAGGUGUGCUAGCGUACUGGUACAUCUGAGAAGGCACAUGAGGAUCACCCAUGUUUCUU [JL-ex4-3.22 Brourd mod] (puzzle: Exclusion 4) | – | – | – | 21.1 nM | –
UUAUUGUUAGAGGAUAUAUUAAGGUAUGCUUUGAUAGAAGGCUAUACAUGAGGAUCACCCAUGUUUUUUGGGAU [JR_Ex6_Sub076] (Eterna round: R97, puzzle: Exclusion 6) | – | 654 nM | 328 nM | – | –
UUAUUUAGUGUGAGGAUAUGCUGGUCGAUAGAUCAGCAGAAGGCACAUGAGGAUCACCCAUGUAAUAUAUUAAA [Mat - Exclusion 4 - JL Mod - D34] (puzzle: Brourd's mod of Exclusion 4) | – | – | – | 51.5 nM | –
UUCACAUGGACAUAAGAUCACAUGAGGAUCACCCAUGUGAAUAACAAGCUUUUUGCUCGUCUUAUGUCCAAUAAUAG [Stov1/14-A2] (Eterna round: R97, puzzle: Sensor, turn-off variant 1) | – | 15.8 nM | 13.3 nM | – | –
UUCACAUGGACAUGAGAUCACAUGAGGAUCACCCAUGUGAAUAACAAGCUUUUUGCUCGUCUUAUGUCCAAUAAUAA [Stov1/14-C1] (Eterna round: R97, puzzle: Sensor, turn-off variant 1) | – | 14 nM | 12.8 nM | – | –
UUCACGUCAGGAUAUCCAUAUUUCUGAUAUAACGGUACUUUGGAGAAGGGACAUGAGGAUCACCCAUGUCCUCU [LRO-Excl4-19-Nando 22 Mod] (Eterna round: R97, puzzle: Exclusion 4) | – | 15.5 nM | 16.9 nM | – | –
UUCAUGUGAGGAUAUGUGUACUGCUUUCUGUUUAGAUGUACACAGAAGGCACAUGAGGAUCACCCAUGUAGUAC [Ex4 - 3 - 31] (puzzle: Exclusion 4) | – | – | – | 33.8 nM | –
UUCCAACGAGGAUAUCGAUGGUGGAACAUGAGGAUCACCCAUGUAUGAGAUAUUGUAGUUCGAGAAGGCGUUCAGU [JR_E5_Sub056] (puzzle: Exclusion 5) | – | – | – | 31.5 nM | –
UUCCUACAUGAGGAUCACCCAUGUCAGGAUAUAUAAAACGCUCAGAUAAAAGAGCAAGAUAGAAGGGAUUGGGA [Aquis] (Eterna round: R97, puzzle: Exclusion 1) | – | 14.5 nM | 15.1 nM | – | –
UUCCUACAUGAGGAUCACCCAUGUGAGGAUAUGCAUCGUAUUAUUCUCGUAUGUAGUAGCAGAAGGCGCAUUGG [Starry Exclusion 1.1] (Eterna round: R96, puzzle: Exclusion 1) | 15.9 nM | 82.5 nM | 29 nM | – | –
UUCCUACAUGAGGAUCACCCAUGUGAGGAUAUGCAUCGUAUUAUUCUCGUAUGUAGUAGCAGAAGGCGCAUUGG [Starry Exclusion 1.1] (puzzle: Exclusion 1) | – | – | – | 36.9 nM | apparent KD of MS2 coat protein [3]: 121 nM; apparent KD of MS2 coat protein [4]: 31.2 nM
UUCCUCGUUGUGAGGAUAUCGUAUUCUUUUUGUUACGAGAAGGCACAUGAGGAUCACCCAUGUUUCUUGAUGUU [JR_BMOE4_Sub069] (puzzle: Brourd's mod of Exclusion 4) | – | – | – | 19.6 nM | –
UUCCUGUCAGGAUAUGACUAGAUGCACGUUAGUGUGUUUACUUAGAAGGGACAUGAGGAUCACCCAUGUAGUCC [Bring Us a Shrubbery-16] (puzzle: Exclusion 4) | – | – | – | 31.7 nM | –
UUCGGCGGAGGAUAUACAGUUUUUUGUUGAAUCGGCGGGAAACAUGAGGAUCACCCAUGUAGAAGGUUGUUGAA [-18.7, -16.7 kcal, A 27%] (Eterna round: R97, puzzle: Exclusion 2) | – | 63.3 nM | 78 nM | – | –
UUCGGCGGAGGAUAUACAUAUUUUUGUUGAAUCGGCGGAAAACAUGAGGAUCACCCAUGUAGAAGGUUGUUGAA [-16.3, -13.4 kcal, A 30%] (Eterna round: R97, puzzle: Exclusion 2) | – | 27.2 nM | 32.3 nM | – | –
UUCGUACAGCAAAGCUGUACGCGUACAUGAGGAUCACCCAUGUAGGAUAUGGUAGGCAAAGCUUACUAGAAGGAUAGAGUGAUC [Mat - Exclusion NG 3 - Mod of JL - D76] (Eterna round: R96, puzzle: Exclusion NG 3) | 290 nM | 593 nM | 582 nM | – | –
UUCGUACAGCUUUGCUGUACGCGUACAUGAGGAUCACCCAUGUAGGAUAUGGUAGGCAAAGCUUACUAGAAGGAUAGAGUGAUC [Mat - Exclusion NG 3 - Mod of JL - D75] (Eterna round: R96, puzzle: Exclusion NG 3) | 96.2 nM | 244 nM | 238 nM | – | –
